Test results as given in publication PMC5525146.

Target: Actin from rabbit muscle (rabbit) (UniProt P68135)
Experiment: co-sedimentation

percent of protein co-sedimented with F-actin at saturation: 20 to 22%
Substance: Palld-Ig3 K38/51A double mutant (domain or fragment)
